Reference: US5981483
Several values for one entry are separate records, joined by “and”; a condition that tells them apart may be missing. Equal values may be shown once.

Tests used:
BMP-6 [1] = test: SPR (BIAcore); analyte over immobilized cytokine; repeated calculation
BMP-4 [2] = test: as above
TGF-β2 [3] = test: as above
[4] = molecular target: active TGF-β produced by Mv1Lu cells (mink)
[5] = molecular target: T1, recombinant human BMP-2 (human) (UniProt P12643)
T1 sequence: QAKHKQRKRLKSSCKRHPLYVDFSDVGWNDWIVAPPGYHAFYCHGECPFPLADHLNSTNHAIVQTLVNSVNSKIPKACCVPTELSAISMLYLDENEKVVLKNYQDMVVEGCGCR

[6] = molecular target: purified human TGF-β1 (human) (UniProt P01137)
[7] = molecular target: purified human TGF-β1 (human) (UniProt P01137); remark: listed apart in the source
BMP-6 [8] = test: SPR (BIAcore); analyte over immobilized cytokine
BMP-4 [9] = test: SPR (BIAcore); analyte over immobilized cytokine
TGF-β2 [10] = test: SPR (BIAcore); analyte over immobilized cytokine
[11] = molecular target: TGF-β in dexamethasone-treated rat bone marrow cultures (rat)
[12] = molecular target: purified human TGF-β1 (human) (UniProt P01137); remark: listed apart in the source

BMP-6, sequence (P22004 375-513): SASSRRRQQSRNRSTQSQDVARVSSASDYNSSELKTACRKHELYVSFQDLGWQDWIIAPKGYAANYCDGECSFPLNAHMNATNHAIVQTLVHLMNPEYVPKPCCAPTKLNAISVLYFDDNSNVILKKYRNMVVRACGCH
purified human TGF-β1 (human), sequence (P01137 279-390 limits assumed): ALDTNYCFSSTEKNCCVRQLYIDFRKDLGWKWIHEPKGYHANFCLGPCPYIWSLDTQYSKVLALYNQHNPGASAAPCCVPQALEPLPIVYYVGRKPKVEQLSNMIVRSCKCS

B1: bovine fetuin (protein)
chain: IPLDPVAGYKEPACDDPDTEQAALAAVDYINKHLPRGYKHTLNQIDSVKVWPRRPTGEVYDIEIDTLETTCHVLDPTPLANCSVRQQTQHAVEGDCDIHVLKQDGQFSVLFTKCDSSPDSAEDVRKLCPDCPLLAPLNDSRVVHAVEVALATFNAESNGSYLQLVEISRAQFVPLPVSVSVEFAVAATDCIAKEVVDPTKCNLLAEKQYGFCKGSVIQKALGGEDVRVTCTLFQTQPVIPQPQPDGAEAEAPSAVPDAAGPTPSAAGPPVASVVVGPSVVAVPLPLHRAHYDLRHTFSGVASVESSSGEAFHVGKTPIVGQPSIPGGPVRLCPGRIRYFKI
- Kd (BMP-6 [1]): 710 nM
- koff (BMP-6 [1]): 0.0021 s⁻¹
- kon (BMP-6 [1]): 2900 M⁻¹ s⁻¹
- Kd (BMP-4 [2]): 120 nM
- koff (BMP-4 [2]): 0.00051 s⁻¹
- kon (BMP-4 [2]): 4200 M⁻¹ s⁻¹
- Kd (TGF-β2 [3]): 4400 nM
- koff (TGF-β2 [3]): 0.0024 s⁻¹
- kon (TGF-β2 [3]): 550 M⁻¹ s⁻¹
- proliferation of Mv1Lu cells without added cytokine (3H-thymidine incorporation) [4]: 8 pM
- IC50, reversal of BMP-2 inhibition of Mv1Lu cell growth [5]: 2000 nM and 5000 nM
- IC50, block of the anti-proliferative activity of exogenously added TGF-β1 (18 pM) on Mv1Lu cells (FIG. 12) [6]: 3e-06 M
- IC50, inhibition of the anti-proliferative activity of TGF-β1 (12 pM) on Mv1Lu cells [7]: 4.2e-06 M
- Kd (BMP-6 [8]): 860 nM
- koff (BMP-6 [8]): 0.0025 s⁻¹
- kon (BMP-6 [8]): 2900 M⁻¹ s⁻¹
- Kd (BMP-4 [9]): 140 nM
- koff (BMP-4 [9]): 0.00058 s⁻¹
- kon (BMP-4 [9]): 4200 M⁻¹ s⁻¹
- koff (TGF-β2 [10]): 0.0032 s⁻¹
- kon (TGF-β2 [10]): 550 M⁻¹ s⁻¹
- IC50, inhibition of calcium-deposition [11]: 10000 nM
- percent neutralization of the antiproliferative activity of TGF-β1 (3H-thymidine incorporation, Mv1Lu cells) [12]: 150%
